Literature values as cited in patent US20250255929A1, “METHODS FOR REDUCING RISKS ASSOCIATED WITH HEART FAILURE AND FACTORS ASSOCIATED THEREWITH” (Stealth BioTherapeutics Inc., priority 2012, published 2025).
Square brackets hold non-standard residues; d marks the D form. Ends that are not written are not given here. Dmt = Cc1cc(O)cc(C)c1C[C@H](N)C(=O)O

System: several mammalian cell types
Conditions: energy-independent manner, Zhao et al., J. Pharmacol Exp Ther., 304:425-432, 2003; cited from earlier work

## 2′,6′-Dmt-D-Arg-Phe-Lys-NH2 ([Dmt][dR]FK-NH2)
  penetration of the plasma membrane: readily penetrates the plasma membrane
